Experimental findings from patent publication US20240141072A1 (published 2024) are described below.

The target of assay [1] is T1, human DLL3 on DLL3-expressing tumor cell lines (human, UniProt Q9NYJ7 27-618).
T1 sequence: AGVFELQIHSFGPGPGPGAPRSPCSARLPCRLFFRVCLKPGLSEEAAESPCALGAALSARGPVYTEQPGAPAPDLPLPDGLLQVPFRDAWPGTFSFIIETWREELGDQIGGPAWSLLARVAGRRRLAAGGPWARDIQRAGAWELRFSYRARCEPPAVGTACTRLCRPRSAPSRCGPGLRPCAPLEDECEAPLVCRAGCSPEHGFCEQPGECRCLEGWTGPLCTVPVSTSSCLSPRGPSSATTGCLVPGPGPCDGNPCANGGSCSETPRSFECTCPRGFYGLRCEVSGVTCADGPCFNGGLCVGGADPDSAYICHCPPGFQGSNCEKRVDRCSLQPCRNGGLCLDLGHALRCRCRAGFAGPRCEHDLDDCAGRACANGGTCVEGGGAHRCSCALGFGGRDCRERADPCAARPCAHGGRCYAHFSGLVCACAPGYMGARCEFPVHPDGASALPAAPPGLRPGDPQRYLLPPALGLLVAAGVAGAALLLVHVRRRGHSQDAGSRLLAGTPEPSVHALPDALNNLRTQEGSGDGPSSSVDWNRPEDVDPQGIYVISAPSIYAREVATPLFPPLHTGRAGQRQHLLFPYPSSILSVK
Nature of the assay: cell-based or functional assay.

In assay [2] the target is T2, biotinylated human DLL3 protein expressed as a human IgG1 fusion protein (human, UniProt Q9NYJ7 27-492, limits assumed, biotinylated).
T2 sequence: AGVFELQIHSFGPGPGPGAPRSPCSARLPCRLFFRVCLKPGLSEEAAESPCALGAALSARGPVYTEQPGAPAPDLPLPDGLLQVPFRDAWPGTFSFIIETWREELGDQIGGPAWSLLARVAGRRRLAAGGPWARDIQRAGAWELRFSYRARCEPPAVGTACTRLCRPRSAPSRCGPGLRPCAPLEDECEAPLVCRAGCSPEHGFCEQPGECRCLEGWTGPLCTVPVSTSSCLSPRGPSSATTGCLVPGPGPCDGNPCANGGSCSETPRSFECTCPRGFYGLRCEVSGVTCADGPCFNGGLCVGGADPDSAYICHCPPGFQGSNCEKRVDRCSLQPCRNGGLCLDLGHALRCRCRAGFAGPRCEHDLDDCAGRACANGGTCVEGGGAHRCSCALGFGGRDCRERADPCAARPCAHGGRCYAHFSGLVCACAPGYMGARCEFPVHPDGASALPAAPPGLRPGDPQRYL
Nature of the assay: Octet BLI, single 50 nM. The method, boiled down: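 Read-out is binding affinity to human DLL3. Conditioned medium containing a known amount of each trispecific protein was run against the immobilised biotinylated DLL3 fusion.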
(In general: Biolayer interferometry detects binding as a change in optical thickness at a sensor tip.)

Another assay has as its target T3, cynomolgus DLL3 (cynomolgus, UniProt A0A2K5WSR1 27-490).
T3 construct: also called cyDLL3
T3 sequence: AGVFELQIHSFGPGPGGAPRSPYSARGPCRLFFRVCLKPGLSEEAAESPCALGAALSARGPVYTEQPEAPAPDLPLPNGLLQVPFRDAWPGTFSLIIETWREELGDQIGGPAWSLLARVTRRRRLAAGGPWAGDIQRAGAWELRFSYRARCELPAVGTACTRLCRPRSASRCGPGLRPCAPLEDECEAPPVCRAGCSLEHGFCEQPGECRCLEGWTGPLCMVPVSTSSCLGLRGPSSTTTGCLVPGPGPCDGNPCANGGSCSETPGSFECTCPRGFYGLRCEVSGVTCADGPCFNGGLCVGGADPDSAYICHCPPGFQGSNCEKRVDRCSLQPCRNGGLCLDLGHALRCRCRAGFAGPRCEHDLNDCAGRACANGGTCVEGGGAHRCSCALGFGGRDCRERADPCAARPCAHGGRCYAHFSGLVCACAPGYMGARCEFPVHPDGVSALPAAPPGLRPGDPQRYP
As to the kind of experiment: Octet BLI, single 60 nM.

The target in assay [3] is T2, biotinylated human DLL3 protein …. As to the kind of experiment: Octet BLI, 60/20/6.67/2.22 nM. The method, then:
Using the conditioned medium with known concentrations of the anti-DLL3 trispecific proteins, the binding affinities of the anti-DLL3 trispecific proteins toward human DLL3 protein were measured using a method where biotinylated version of human DLL3 protein were expressed as a human IgG1 fusion protein, and the binding affinity measurement was carried out in an Octet instrument with streptavidin tips.

In assay [4] the target is T1, human DLL3 on DLL3-expressing tumor …. As to the kind of experiment: cell-based or functional assay. The source holds these as a separate data set.

Read-outs that look alike come from different tables or passages of the source.

B1: 2E01 anti-DLL3 trispecific protein (other)
chain: EVQLVESGGGLVQPGGSLTLSCVASGSTSSINAMGWYRRAPFKQGELPAGISPDGTKAYADSAKVRFTISRDNAKNSVYLQMNSLRAEDTAVYYCYYFHTVCGTSMGYWGQGTLVTVSS
notes: not shown: linker 1808, anti-albumin sdAb, linker 1808, anti-CD3 fragment, His6 1819
As for B1, in assay [1], the “DMS-153 TDCC EC50” value turned out to be 0.033 nM. The Kd (in general, the free concentration of one partner at which half of the binding sites on the other are occupied at equilibrium, for simple one-to-one binding) in assay [2] worked out at 4.1 nM.

B2: 3A02 anti-DLL3 trispecific protein (other)
chain: EVQLVESGGGLVQPGGSLTLSCAASGSSVSFLSLAWYRQAPGKKRELVAGISADGSTAYIDSVKGRFTISRDNAKNSVYLQMNSLRAEDTAVYYCYAYRWRTRYTYWGQGTLVTVSS
notes: as for B1
On to B2, for which the dissociation constant Kd in assay [2] is 8.1 nM; with cynomolgus DLL3, 9.5 nM; in assay [3] it was 7.8 nM.

B3: 3A011 anti-DLL3 trispecific protein (other)
chain: EVQLVESGGGLVQPGGSLTLSCAASGSSVSFLSLAWYRQAPGKKRELVAGISTDGSTDYIDSVKGRFTISRDNAKNSVYLQMNSLRAEDTAVYYCYAYRWRTRYTYWGQGTLVTVSS
notes: as for B1
Turning to B3, the Kd is 6.8 nM in assay [2], 8.8 nM in the assay with cynomolgus DLL3 and 7.3 nM in assay [3].

B4: 4H04 anti-DLL3 trispecific protein (other)
chain: EVQLVESGGGLVQPGGSLTLSCAASGSSVKFLSMAWYRQAPGKKRELVAGVSADGSTDYIDSVKGRFTISRDNAKNSVYLQMNSLRAEDTAVYYCYAYEWTTRYTYWGQGTLVTVSS
notes: as for B1
Take B4: the “DMS-153 TDCC EC50” value in assay [1] was 0.051 nM. Also, the Kd in assay [2] stood at 6.1 nM.

B5: 3H06 anti-DLL3 trispecific protein (other)
chain: EVQLVESGGGLVQPGGSLTLSCAASGSSVSQLSMAWYRQAPGKKRELVAGISADGSTDYFDSVKGRFTISRDNAKNSVYLQMNSLRAEDTAVYYCYAYRWTTRGTYWGQGTLVTVSS
notes: as for B1
On to B5, for which the “DMS-153 TDCC EC50” value in assay [1] amounted to 0.12 nM. In addition, the Kd in assay [2] is 8 nM.

B6: 4C06 anti-DLL3 trispecific protein (other)
chain: EVQLVESGGGLVQPGGSLTLSCAASNSSVSKLSMAWYRQAPGKKRELVAGISADGSTAYIDSVKGRFTISRDNAKNSVYLQMNSLRAEDTAVYYCYAYRWSTRYTYWGQGTLVTVSS
notes: as for B1
As for B6, the “DMS-153 TDCC EC50” value in assay [1] was 0.068 nM. The molecule further had a Kd in assay [2] of 6.8 nM.

B7: 4E02 anti-DLL3 trispecific protein (other)
chain: EVQLVESGGGLVQPGGSLTLSCAASGSQVSFLSMAWYRQAPGKKRELVAGISADGSTVYIDSVKGRFTISRDNAKNSVYLQMNSLRAEDTAVYYCYAYRWSTRYTYWGQGTLVTVSS
notes: as for B1
With B7, the “DMS-153 TDCC EC50” value in assay [1] is 0.041 nM. The equilibrium dissociation constant (Kd) in assay [2] worked out at 3.8 nM.

B8: 4D011 anti-DLL3 trispecific protein (other)
chain: EVQLVESGGGLVQPGGSLTLSCAASGSSVRFLSMAWYRQAPGKKRELVAGISVDGSTDYIDSVKGRFTISRDNAKNSVYLQMNSLRAEDTAVYYCYAYRWRTRYTYWGQGTLVTVSS
notes: also called 4D11; not shown: linker 1808, anti-albumin sdAb, linker 1808, anti-CD3 fragment, His6 1819
As to B8, the “DMS-153 TDCC EC50” value in assay [4] came out at 0.098 nM. The molecule further gave a Kd in assay [2] of 5.8 nM.

B9: 3D07 anti-DLL3 trispecific protein (other)
chain: EVQLVESGGGLVQPGGSLTLSCAASGSSVRFLSMAWYRQAPGKKRELVAGISADGSTDYIDSVKGRFTISRDNAKNSVYLQMNSLRAEDTAVYYCYAYSWTTRYTYWGQGTLVTVSS
notes: as for B1
As for B9, in assay [1], the “DMS-153 TDCC EC50” value was 0.061 nM. The same molecule returned a Kd in assay [2] of 5.9 nM.

B10: 3C04 anti-DLL3 trispecific protein (other)
chain: EVQLVESGGGLVQPGGSLTLSCAASGSHVSFLSMAWYRQAPGKKRELVAGISADGPTDYIDSVKGRFTISRDNAKNSVYLQMNSLRAEDTAVYYCYAYRWDTRYTYWGQGTLVTVSS
notes: as for B1
Regarding B10, the “DMS-153 TDCC EC50” value in assay [1] worked out at 0.052 nM. Also, the results for the Kd (in assay [2]; in the assay with cynomolgus DLL3; in assay [3]) were 4.5 nM, 5.7 nM and 4 nM, respectively.

B11: 4B011 anti-DLL3 trispecific protein (other)
chain: EVQLVESGGGLVQPGGSLTLSCAASGSSVTFLSMAWYRQAPGKKRELVAGISADGSTVYIDSVKGRFTISRDNAKNSVYLQMNSLRAEDTAVYYCYAYRWTTRGTYWGQGTLVTVSS
notes: as for B1
Regarding B11, the “DMS-153 TDCC EC50” value in assay [1] turned out to be 0.048 nM. In addition, in assay [2], the dissociation constant (Kd) was found to be 3.9 nM.

B12: 4B07 anti-DLL3 trispecific protein (other)
chain: EVQLVESGGGLVQPGGSLTLSCAASGSSVGFLSMAWYRQAPGKKRELVAGISADGSTVYIDSVKGRFTISRDNAKNSVYLQMNSLRAEDTAVYYCYAYRWTTRYTYWGQGTLVTVSS
notes: as for B1
In the case of B12, the “DMS-153 TDCC EC50” value in assay [1] turned out to be 0.067 nM. Also, the Kd in assay [2] turned out to be 4.3 nM.

B13: 3H011 anti-DLL3 trispecific protein (other)
chain: EVQLVESGGGLVQPGGSLTLSCAASGSSVKFLSMAWYRQAPGKKRELVAGISADGSTVYIDSVKGRFTISRDNAKNSVYLQMNSLRAEDTAVYYCYAYRWPTRYTYWGQGTLVTVSS
notes: as for B1
With B13, the “DMS-153 TDCC EC50” value in assay [1] was found to be 0.12 nM. The molecule also gave a Kd in assay [2] of 2.7 nM.

B14: 1A011 anti-DLL3 trispecific protein (other)
chain: EVQLVESGGGLVQPGGSLTLSCVASGSTSSINAIGWYRRAPGKQRELVAGISSDGSKVYIDSVKGRFTISRDNAKNSVYLQMNSLRAEDTAVYYCYYFRTVSGSSYRYWGQGTLVTVSS
notes: also called 1A11; not shown: linker 1808, anti-albumin sdAb, linker 1808, anti-CD3 fragment, His6 1819
For the molecule B14, the “DMS-153 TDCC EC50” value in assay [1] is 0.051 nM; in assay [4] it was 0.17 nM. The Kd was 3.7 nM in assay [2], 3.6 nM with cynomolgus DLL3 and 3.5 nM in assay [3].

B15: 2A04 anti-DLL3 trispecific protein (other)
chain: EVQLVESGGGLVQPGGSLTLSCVASGSTSSINAMAWYRRAPGKQRELVAGISSDGSKVYTDSVKGRFTISRDNAKNSVYLQMNSLRAEDTAVYYCYYFRTTSGSSMRYWGQGTLVTVSS
notes: as for B1
B15: in assay [1], the “DMS-153 TDCC EC50” value amounted to 0.081 nM. Besides, in assay [2], binding was characterised by a dissociation constant (Kd) of 5.6 nM.

B16: 2E010 anti-DLL3 trispecific protein (other)
chain: EVQLVESGGGLVQPGGSLTLSCVASGSTSSINAMAWYRRAPGKQRELVAGISSDGSKVYADSVKGRFTISRDNAKNSVYLQMNSLRAEDTAVYYCYYFHTVSGSSMRYWGQGTLVTVSS
notes: as for B1
As for B16, in assay [1], the “DMS-153 TDCC EC50” value was determined as 0.031 nM. In assay [2], this molecule returned a Kd of 4 nM.

B17: 2C04 anti-DLL3 trispecific protein (other)
chain: EVQLVESGGGLVQPGGSLTLSCVASGSTSSRNAMGWYRRAPGKQRELVAGISSDGSKLYADSVKGRFTISRDNAKNSVYLQMNSLRAEDTAVYYCYYFRTVLGSSMRYWGQGTLVTVSS
notes: as for B1
In the case of B17, the “DMS-153 TDCC EC50” value in assay [4] amounted to 0.043 nM. The same molecule came in with a Kd in assay [2] of 6.8 nM.

B18: 1C03 anti-DLL3 trispecific protein (other)
chain: EVQLVESGGGLVQPGGSLTLSCVASGSTSSINAMAWYRRAPGKQRELVAGISSDNSKVYADSVKGRFTISRDNAKNSVYLQMNSLRAEDTAVYYCYYFRTVGGSSMRYWGQGTLVTVSS
notes: as for B1
Regarding B18, the “DMS-153 TDCC EC50” value in assay [1] came out at 0.096 nM. This molecule also had a Kd in assay [2] of 6.1 nM.

B19: 2E011 anti-DLL3 trispecific protein (other)
chain: EVQLVESGGGLVQPGGSLTLSCVASGSTSSINAIGWYRRAPGKQRELVAGISSDGSSVYADSVKGRFTISRDNAKNSVYLQMNSLRAEDTAVYYCYYFRRVSGSSMRYWGQGTLVTVSS
notes: as for B1
For the molecule B19, the “DMS-153 TDCC EC50” value in assay [1] was 0.19 nM. Further, in assay [2], the Kd amounted to 2.4 nM.
